The results in this text go back to US20250304655A1.

This assay has as its target human hemoglobin (HbA) (human) (UniProt P69905). Put plainly: cell-based or functional assay.

Chain of human hemoglobin (HbA) (human) (P69905 2-142 limits assumed, chain 1 of 2): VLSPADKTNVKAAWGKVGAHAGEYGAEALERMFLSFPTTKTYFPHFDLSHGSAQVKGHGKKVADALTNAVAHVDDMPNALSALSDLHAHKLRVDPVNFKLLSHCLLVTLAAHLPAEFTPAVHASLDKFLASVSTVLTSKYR
Chain of human hemoglobin (HbA) (human) (P68871 2-147 limits assumed, chain 2 of 2, further chain): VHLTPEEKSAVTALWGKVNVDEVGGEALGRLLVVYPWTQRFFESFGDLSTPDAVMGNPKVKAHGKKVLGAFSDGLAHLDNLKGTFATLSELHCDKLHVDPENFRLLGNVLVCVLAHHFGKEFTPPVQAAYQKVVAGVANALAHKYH

In turn, recHp1-1 registered a median relative relaxation of 83%.
